test: soluble on expression in E. coli; label from the status in PepcDB or PDB records

Soluble on expression in E. coli, not soluble:
MGSDKIHHHHHHMTPSIPPEVAQHLGYYVYLYVDPRTEQVFYVGKGQGQRVLSHLSAEGESRKAQILAELRQAQLSPRLDILAHGLPDEATAYRIEAAAIDLLGLDSLSNLVRGWQSVRSGRRSLEELVTYYAAPPAVITDPVMLIRSNRLYWHGMPAQELYEATRGVWKVAKWRQQEVKYALAVFEGVVREVYTIESWHPAGQTPYQTRLAEAVNDPQRWEFVGHVAPEEVRNRYLYHSVTASFARNAQNPIAYPPVT
MGSDKIHHHHHHMTPTVLLANPRGFCAGVDRAIAIVERALEKFGAPIYVRHEVVHNTFVVDDLKRKGAVFVEELSEVPAGATVIFSAHGVSQAVRTEAAARGLTVFDATCPLVTKVHVEVSKMRDKGYEIVMIGHKGHPEVEGTLGQSAGGMYLVETPGDVATLEVTNPDCLAYVTQTTLSVDDAARVVDALRARFPTITGPKKDDICYATQNRQDAVKHLASQCDVVIVVGSPTSSNSNRLREVAENLGIAAYMVDNADEIDPRWVSGNQRVGVTAGASAPDVLVRAVIDRLERLGICSVSELDGVQEKVGFPLPRELA
MGSDKIHHHHHHMTQHPFISRVAVRNYKSIGYCDVNLRPLTYLVGHNGAGKSNFMDALHFVCDALSYSLDSALNERGGINEVRRRSGGHPTHFALRVEFVMQSGQAGRYGFVIGALKNGGYEVQREECVVAGIGKGPFFRIEKGKLRDSSETTFPSVTADRLALVAASGLTAFRPVFDALTAMGFYNLNPKLMRELQKPQDGRLLRPAGENIASVIGHLEKVAPAQMALIQEYLHSVAPMVHGVERKPIGPMETLEFRQDMAGSKHPWRFLAQNMSDGTLRALGVLSALLQGNVDYSPTLIGIEEPETALHPAASAALREALVRASETTQVLVTSHSPDLLDDHSIDADAVLAVVSEAGETKVAPLDEGSRQVMRDHLFSAGELLRMNQLAPDRASLEQQDKAASGDLFGETESV
MGSDKIHHHHHHMTQITPQPGIMDIALYQGGAAHVDGVSNVTKLSSNENPLGPSPAAVEAMAEAAATMHRYPSSDHATLRAAIAETHGLDAERIICGAGSDEIIAFLCQCYAGPGDEVLYTEHGFAMYRISALAAGATPVEVKERERVTDVDALLAGCTAQTKLVFIANPNNPTGTMISEAEVARLADGIPEDAILVLDGAYAEYVEGFDAGAQLIAARHNVVMTRTFSKIYGLGGARVGWAYGPQEIIDVLNRVRGPFNVSTTALAGAEAAVRDTDYVQRCRLENAKWRGWLADQLAELGVPSDTSCTNFILARFASQSEAESCDDFLKQRGLIVRRVAGYNLPTALRITIGDETACRAVAAAVKDFKAGAAE
MGSDKIHHHHHHMTQLIMRPRPGKIKLGLKASQAPAQLMDRLQYRPEVFEFFTSATDFEPEAFQTLKTAVQFVKTTVTEQIVIHHPMSYQGVHLDQLLDPHREAAAYQFLQTSTAQLLALATELDVKVLVHGGYGSDSGRLIDEYESLQVARDVVFERLDNLVRQASGHVVIENGVTASFMYGDPQLDERIIQHHYPLVCDLSHVFIALHGDMELTMLALKRLAPLIQHYHLVDSMGTRHDSLPLGQGLIDWQRVLPVLNPHATMIYEVPDETDATCANMLSSYHYLRALELRSIEGGQAND
MGSDKIHHHHHHMTQPELTPAQRTEVELLARGRADKSRVLRDLKLPETPEAAHALLLRLGVWDEARTPYADRLRAALNAVELPVPDFDPAEERLDLTHLPTFAIDDEGNQDPDDAVGVEDLGGGLTRLWVHVADVAALVAPDSPLDLEARARGATLYLPDRTIGMLPDELVAKAGLGLHEVSPALSICLDLDPDGNAEAVDVLLTRVKVQRLAYQEAQARLEAGEEPFVTLARLARASRRLREGEGALSIDLPEVRVKADETGASVFPLPKPEMRTVVQECMTLAGWGTAIFADDNEIPLPFATQDYPTREVAGDTLPAMWARRKTLARTRFQPSPGPHHGMGLDLYAQATSPMRRYLDLVVHQQLRAFLAGRDPLSSKVMAAHIAESQMNADATRQAERLSRRHHTLRFIAAQPERVWDAVVVDRRGAQATLLIPDLAFDVQVNTPAAPGTALQVQFADIDLPQMRVRARSV
MGSDKIHHHHHHMTRIALTHVTTYRYGAPVTLGEHKMMFRPRDSHDLHIVEATLVLSPVAEVRWMHDVFGNSITIADFQGASTDFLRFESKILLDHFGLSEPTYPIAAYAETFPFTYDADLVADLGRTNERHYPDPDHRLDAWARRFLDEPGETATLEMLSAMNRAISAEFSYAARDTEGTQTPLETLERGSGSCRDFALLMMEAVRSLGLAARFVSGYLYDPALDGRNASGTVGAGATHAWLQVYLPGAGWVEFDPTNALVGGENLIRVAVTRDPSQAVPITGSFAGPGNAFLSMEVEVTLHRQDQNIQVA
MGSDKIHHHHHHMTRIASHRGGTLEFGDSTPHGFTATAAMALEEVEFDLHPTADGAIVVHHDPTLDATTDMTGAIVDMTLAKVKTATIRYGAGSHPMTLEELCALYVDSHVNFRCEIKPGVDGLPYEGFVALVIAGLERHSMLERTTFSSFLLASMDELWKATTRPRLWLVSPSVLQQLGPGAVIETAIAHSIHEIGVHIDTADAGLMAQVQAAGLDFGCWAAHTPSQITKALDLGVKVFTTDRPTLAIALRTEHRMEASV
MGSDKIHHHHHHMTRIVESLAEISDLYDAVFCDLWGCVHDGITAFDEAIEALRAFKAKGGTVLLLTNAPRPRASVATQLDDFGIPRDCWDVIATSGDSARAAMLSGAVGTKVWHIGEPEHAPFFAPMDLVADAVDVTRVPLDEAEGIVCTGPFDPKADPSELRPQFLLAKTRRLKLLCANPDIVVDRGESREWCAGALAKLYTEMGGESLYFGKPHPPIYDLARRRLVQMGKPTPDDRILAIGDGIVTDVPGGIGENIDTLFITGGLARDETGTDHQPDPAKLARFLTDAQLEPTYSVGMLR
MGSDKIHHHHHHMTRNANKNNKECEKCWIFDLNQFKMITNSILEENTLVLEINQNYEVSVLMDYDVFLENGILTFKDFVNDNSKSAQVLTGSLKTGILNKMSQSISEGLLNKTTNRRTYYITEPTPLIGHTAFGLIDRGTNVIQVRGLSGCNINCPFCSVDEGIHSKSRKNDYYVDKDYLVSEYEKIADFKGYKKLEAHLDGQGEPSLYYPLPDLVQNLNEINSKNNGIVSIQTNGVHLTEKLIDDLEVAGLHRINLSINAMDEKFSKGLSGSKNYDIEKIMKIAEYIKNSKIHLLIAPLLLPNYNDEEFKKVLDFAVELEQKNPQNTINPITNKKNPIVGPQLCLTYQFGRKIPKMRVWDFPKFYNLLDVYHKEYLKDGINVDLEVPLHGFFGSHGRKRLPCPFKLNETISVTVLMDGRVNGEVIGASKNRVIQIIDCKTDINKLIGKRVKVKVLRVKDNVIVGSMVK
MGSDKIHHHHHHMTRSVLVDLDAVLSIARLGSFRAAALDLGMSTTALSNAIAKLEQRLGVRLFNRTTRSVSLTDAGKTFAERVGPAMMDIHDAMLSVQSLQETPAGTLRINAFATAAREVMEPLILSFMQRYPQVHIDLVTEGRIVDIVAAGFDLGLRPADLVPADMIAVSLGLKRSNAVVASPDFLRIHGIPTVPADLYRFRCIRARLPNNALFRWKFEKDGDAMQIDVQGSITLDESSLVRIAAQNGVGLGYVMEADVREDIAAGRLVRVLEDWTPALAPLALYYPGRKNPPAAFSAFIQAARNFANGG
MGSDKIHHHHHHMTSKLAAVSHIEKIALGLRDQAHAVIKNILMMSDIPTQELQHAMKQLSHQGRVALHFHPDRIDNRGLTVVQGLLRDGIYKSQFETHISNGQLSPELGGPRDHWENQLFGNSYSGIKSRPKYGALDLGLCPLGPAPRFGSCYFLTHSQVLSRCTFSYMDSYRLPKEKGTLSCFDAILAALLSESFERCYALGRQPFKPRDIMAHMACEAKSSVAARFELPGLGNLDHYIEAQIHGDVSLADDIGYLVADPSFKGTETEEYFNQLCSDYQINLHWHNGLTLACDKVPTDFRGAAMPVLAKQIAIDEVIDAKTVGAEAARLQKQPSSWSERGSQAKKTQELKLLWHVLVRFGKPREDNFDNH
MGSDKIHHHHHHMTSSLQKLFTFDEFLDFLVTQPENIRYELHDGNIIQMPPPLGQHEQIVAFLTMILGYECLRLKLNYGIPKNATVKPENRTSGYYPDVLLINFSNLINEALWEKQSILSHPDSIPLVIEVVSTNWRDDYHKKLADYEEMGIQEYWIVDYAALGSKELIGDPKQPTITIYSLSDEGEYRGKQFRGDDRIESPTFSNLNLKVEQIFHCVIE
MGSDKIHHHHHHMTSTPGISDSLLSSMNGSGANNNTSAISETQDRFMKLLIAQMKNQDPLNPMDNAEVTSQMAQLSTVTGIEKMNASLSTFISSMQATQALQASSLIGNTVLVEGNSTYLAPAETEGESAAYLGVELPIGADKLTVNIKNGAGNVVKTITVTNQPAGISSLGWNGYGDDGTKLPDGRYTIEATATTGNSSVASTPLSYEQVMSVSTGSDGVKLNLSNLAAITTDQIKQIF
MGSDKIHHHHHHMTVEFDAARLGPILYYRGLEGDALQLAAMVMLPIGERPETLRTDAGDHAPTLLREIGRSAVWRYDFGLTPSCGSYRLGDQSYDVQTDLHGDMRIAFASCNGEEKGDLDRDQEERNRMWAHMCAEHRRAPFALLLQGGDQIYADEATEGHPLSEDWPDKAGRPRNAEELKDLADHLRLRFAERYVQALFGEAPSWIMARVPTLAIWDDHDICDGWGSLYRSKTHSEVGQCLYAVAREMYLLFQHAAVEGDIPDLFMDETGTSLSWQRALPGVKLLAPDLRAERGRRQVLGAYGWSAVEAMKPGSEHTFVISSVPLLGPRLSLVEGLMLMIPTMQKYEDDLRDQWQSRAHRKEWIRMLKQVIAWREEAPVTILSGEIHLATRAEMGPDETRVHQLVASGIAHRAPPQSYARSLGTLAGLGDAPVSGHPIRIHPLPGQSQRYTAERNYLELRRTHGKWHAVWHLEESGDTVPMVLE
MGSDKIHHHHHHMTVLYKGSLKQNNDPFHVTLLSKEHIEQILFLQNVVVEGLEDKSRLQPLSQEEFQYILEGNGMMIGAFIKNELIAFRALLVPPIDDEHLGLDIGLPESELHRVIYQEISNVHPNCRGNGMQKILATVIMDELQKENGKYDYVCCTVAPFNIPSLKDKFSQGMEIAALKEKYGGSMRYVFVKELREDKEKDWTEIKSVPMNNAGGQQALLSEGYRGYEMEKVDEDFVVKFGR
MGSDKIHHHHHHMTVNSIKLLLLPALLLLVSACSSPEPIISLSGSTMGTTYHIKVVNSDRLPEAQLLQAEIDMALEVVNDQMSTYRSDSELSKFNQLQVQQSVKVSADTIKVIEEGMRLYQETDGALDITLGPVVNLWGFGPDKRPTTIPTQAQIDNAKAKMGIKELSIKGLTLTKHNADLYVDLSSIAKGFGVDKIAAILDKYHVSGYLVEIGGELNVKGTKDDNTPWRVAVEQPTTEGQAVQQVIEPGTMSLATSGDYRNFYQENGERFSHLIDPRNGYPIKHQLASATVLHSSCMTADGYATAMMVLGTEASLALAKEKNLAIMLIEKQEQGYQVYYSDAFKSYVK
MGSDKIHHHHHHMTYAVGDIHGCFYALKSLLEKLPLSEEDELIFMGDYVDRGPNSREVIEFLIELSKHHRCIFLRGNHEEMLLNCVKNGSDCDLWFFNGARSTVESFGGVEEIKKFLPFFENTVYHYEKENYVFVHGGVRPGVSLEDQDPFDLVWIRDEFIYSENPLPGKIVVFGHTPFEEPFVSRDKIGIDTGCVYGGRLTALRVEDRKFFQVECANRRW

Source: the DeepSol protein solubility set
